The results in this text go back to US20230399385A1 (NANJING VAZYME BIOTECH, published 2023).

Assay [1] has as its target T1, SARS-CoV-2 RBD (receptor binding domain of the spike protein of SARS-CoV-2; Vazyme Biotech) (SARS-CoV-2, UniProt P0DTC2 319-541). The experiment in a line: ELISA: SARS-CoV-2 RBD coated on the plate, Antibody 5-10 titrated, detected with anti-human IgG-HRP/TMB, OD450.
For assay [2], the target named is T1, SARS-CoV-2 RBD (receptor binding domain …). Description: biolayer interferometry, ForteBio Octet RED96e, RBD 100 nM to 3.13 nM, 1:1 Langmuir model. (In BLI a coated tip is dipped into the sample, and binding shifts an interference pattern.)
Assay [3] addresses SARS-CoV-2 spike (S) glycoprotein, wild-type, on pseudotyped virus (SARS-CoV-2, UniProt P0DTC2 14-1273). Description: cell-based or functional assay.
Assay [4] deals with T1, SARS-CoV-2 RBD (receptor binding domain …). The experiment in a line: HTRF ACE2/RBD binding assay (665/620 ratio): Antibody 5-10 titrated, blocked ligand ACE2. (TR-FRET usually uses a lanthanide donor and a delayed reading to cut background.)
Assay [5] has the same target. Description: method not stated in this sentence (summary of Example 1); biolayer interferometry in Example 2.

The EC50 is the concentration giving half of the maximal effect. Low readings indicate greater potency, high ones weaker potency. Usually Kd stands for the concentration at which binding is half-saturated. Read a high Kd as a looser complex. Usually IC50 stands for the concentration needed to halve the response being measured.

B1: Antibody 5-10 (antibody, V domains shown)
VH: EVQLLESGGGLVQPGGSLRLSCAASGFTFSSYAMSWVRQAPGKGLEWVSAIVGSGGSTYYADSVKGRFIISRDNSKNTLYLQMNSLRAEDTAVYYCAKSLIYGHYDILTGAYYFDYWGQGTLVTVSS
VL: DIQMTQSPSSVSASVGDRVTIPCRASQGIGNWLAWYQQKPGKAPKLLIYAASSLQSGVPSRFSGSGSGTDFTLTISSLQPEDFATYYCQQANSFPPFGQGTRLEIK
notes: also called anti-SARS-CoV-2 RBD Antibody 5-10; monoclonal Antibody 5-10
In assay [1], B1 returned an EC50 of 0.0269 µg/mL. Besides, the dissociation constant (Kd) in assay [2] turned out to be 4.32 nM; in assay [5] it was 4.31 nM. Moreover, in assay [3], the “IC50, neutralizing effects on SARS-CoV-2 pseudovirus” value turned out to be 0.0425 µg/mL. For the same molecule, in assay [4], the half-inhibitory concentration (IC50) came out at 0.231 µg/mL.
